Laboratory results taken from publication PMC11549101, “Structural insights into human zinc transporter ZnT1 mediated Zn^2+ efflux” (EMBO Reports, 2024).

B1: human zinc transporter 3 (ZnT3) lacking the N-terminal 49 residues, ZnT3(50-388) (domain or fragment, UniProt Q99726 50-388, looked up)
chain: MPFHHCHRDPLPPPGLTPERLHARRQLYAACAVCFVFMAGEVVGGYLAHSLAIMTDAAHLLADVGSMMGSLFSLWLSTRPATRTMTFGWHRSETLGALASVVSLWMVTGILLYLAFVRLLHSDYHIEGGAMLLTASIAVCANLLMAFVLHQAGPPHSHGSRGAEYAPLEEGPEEPLPLGNTSVRAAFVHVLGDLLQSFGVLAASILIYFKPQYKAADPISTFLFSICALGSTAPTLRDVLRILMEGTPRNVGFEPVRDTLLSVPGVRATHELHLWALTLTYHVASAHLAIDSTADPEAVLAEASSRLYSRFGFSSCTLQVEQYQPEMAQCLRCQEPPQA
notes: Zinc transporter 3 (ZnT3/SLC30A3), human, residues 50-388 (lacking the N-terminal 49 residues); No protease step is described for ZnT3, so the tags were probably still on the chain; also called hZnT3; SLC30A3; source: HEK293F cells, transfected
B2: human zinc transporter 1 (ZnT1), full-length wild type (natural protein, UniProt Q9Y6M5 1-507, looked up)
chain: MGCWGRNRGRLLCMLALTFMFMVLEVVVSRVTSSLAMLSDSFHMLSDVLALVVALVAERFARRTHATQKNTFGWIRAEVMGALVNAIFLTGLCFAILLEAIERFIEPHEMQQPLVVLGVGVAGLLVNVLGLCLFHHHSGFSQDSGHGHSHGGHGHGHGLPKGPRVKSTRPGSSDINVAPGEQGPDQEETNTLVANTSNSNGLKLDPADPENPRSGDTVEVQVNGNLVREPDHMELEEDRAGQLNMRGVFLHVLGDALGSVIVVVNALVFYFSWKGCSEGDFCVNPCFPDPCKAFVEIINSTHASVYEAGPCWVLYLDPTLCVVMVCILLYTTYPLLKESALILLQTVPKQIDIRNLIKELRNVEGVEEVHELHVWQLAGSRIIATAHIKCEDPTSYMEVAKTIKDVFHNHGIHATTIQPEFASVGSKSSVVPCELACRTQCALKQCCGTLPQAPSGKDAEKTPAVSISCLELSNNLEKKPRRTKAENIPAVVIEIKNMPNKQPESSL
notes: Zinc transporter 1 (ZnT1/SLC30A1), human, full-length wild type, codon-optimised synthetic cDNA; residues 138-240 and 448-507 not modelled in the map; also called hZnT1; SLC30A1; source: HEK293F cells, transfected; not shown: FLAG, C-terminal, cleaved; mCherry, C-terminal, cleaved

How the values were obtained:
[1] = biological target: the molecule itself; experiment: cryo-EM structure; single-particle cryo-EM of purified hZnT3(50-388) in LMNG/CHS micelles, 50 mM MES pH 6.0, 150 mM NaCl, 1 mM ZnSO4; 3.14 Å map
[2] = biological target: the molecule itself; experiment: cryo-EM structure; single-particle cryo-EM of purified hZnT1 in LMNG/CHS micelles, 50 mM HEPES-Na pH 7.5, 150 mM NaCl, no Zn2+ supplement, no EDTA treatment; 3.48 Å map, C1

Row | Protein | stoichiometry N [1] | stoichiometry N [2]
1 | B1 | 2 | –
2 | B2 | – | 2
